Experimental findings from patent CN114426582A (SHAANXI PULSE ELEMENT BIOTECHNOLOGY LTD COMPANY, dated 2022) are described below.

The target of test [1] is T1, ENO2-GST (human ENO2 expressed from pGEX 4t-1, GST-column purified) (human, UniProt P09104 1-434).
T1 construct: Expressed in E. coli BL21(DE3) and used to coat ELISA plates at 100 ng/well; also called pGEX 4t-1载体表达的ENO2; ENO2-4t-1; not shown: GST tag supplied by vector pGEX 4t-1
Kind of test: ELISA screening of hybridoma supernatants on ENO2-GST coated plates.

Test [2] concerns the target T2, ENO2flag (ENO2 with C-terminal flag tag, pcDNA3.1, expressed in 293T cells) (human, UniProt P09104 2-434, limits assumed).
T2 construct: Tested as a lysate of transfected 293T cells (Western blot) and in acetone-fixed transfected 293T cells (immunofluorescence); also called ENO2flag-pcDNA3.1; ENO2抗原; not shown: C-terminal flag tag
Kind of test: Western blot, lysate of 293T cells transfected with ENO2flag-pcDNA3.1, hybridoma supernatant.

Test [3] has as its target T3, 纯化的ENO2蛋白 (coating protein of the Example 7 ELISA) (human, UniProt P09104 1-434).
T3 construct: also called 抗原ENO2
Kind of test: ELISA, ENO2-coated plate (100 ng/well), 293T supernatant, HRP anti-IgG / anti-kappa secondary.

T3 sequence (P09104 whole entry): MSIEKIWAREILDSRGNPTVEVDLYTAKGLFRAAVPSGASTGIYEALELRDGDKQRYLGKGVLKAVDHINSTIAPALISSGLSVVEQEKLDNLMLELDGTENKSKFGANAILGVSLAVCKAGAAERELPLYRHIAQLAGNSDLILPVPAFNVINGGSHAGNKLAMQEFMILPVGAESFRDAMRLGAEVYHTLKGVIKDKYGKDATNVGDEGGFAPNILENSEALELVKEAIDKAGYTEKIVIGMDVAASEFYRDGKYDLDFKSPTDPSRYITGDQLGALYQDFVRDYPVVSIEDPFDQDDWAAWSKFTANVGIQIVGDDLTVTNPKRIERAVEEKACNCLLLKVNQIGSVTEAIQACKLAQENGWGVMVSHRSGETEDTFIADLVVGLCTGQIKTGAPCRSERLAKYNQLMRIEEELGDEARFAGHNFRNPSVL
T2 sequence (P09104 2-434 limits assumed): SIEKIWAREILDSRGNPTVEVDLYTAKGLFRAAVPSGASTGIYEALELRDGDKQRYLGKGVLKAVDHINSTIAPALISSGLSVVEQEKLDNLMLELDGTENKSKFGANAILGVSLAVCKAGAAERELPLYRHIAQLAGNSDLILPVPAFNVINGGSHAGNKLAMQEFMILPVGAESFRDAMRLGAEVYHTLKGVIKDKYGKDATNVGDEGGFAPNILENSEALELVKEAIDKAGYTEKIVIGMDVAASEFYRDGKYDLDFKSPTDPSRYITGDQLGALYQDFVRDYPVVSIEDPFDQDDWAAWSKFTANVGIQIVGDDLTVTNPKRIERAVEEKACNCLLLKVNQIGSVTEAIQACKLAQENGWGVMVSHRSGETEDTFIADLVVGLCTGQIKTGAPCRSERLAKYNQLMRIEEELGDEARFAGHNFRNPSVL
T1 sequence (P09104 whole entry): as the sequence (P09104 whole entry) above

B1: 抗神经特异性烯醇化酶的单克隆抗体4C11 (hybridoma-derived) (antibody, V domains shown)
VH: EVKLVESGGGLVQPGGSLRLSCATSGFTFTDYYMSWVRQPPGKALEWLGFIRNKANGYTTEYSASVKGRFTISRDNSQSILYLQMNTLRAEDSATYYCARDGDGSARWGQGTLVTVSA
VL: DIQMTQTTSSLSASLGDRVTISCRASQDISNYLNWYQQKPDGTVKLLIYYTSRLHSGVPSRFSGSGSGTDYSLTISNLEQEDIATYFCQQGNTLPYTFGGGTRLEIR
notes: Mouse hybridoma antibody; It was tested as hybridoma supernatant or ascites; also called 4C11单克隆抗体
With B1, the binding result in test [1] and in test [2] was “binds” in each case.

B2: 重组4C11抗体重链4C11mG1 (transfected alone) (other)
heavy: B1 VH
notes: Heavy chain only, with no light chain; tested as 293T culture supernatant; not shown: mouse IgG1 heavy-chain constant region supplied by vector pFUSE-CHIg-mG1 (invivogen)
Regarding B2, the binding result in test [3] is reported as “no binding”.

B3: 重组4C11抗体轻链4C11mk (transfected alone) (other)
light: DIQMTQTTSSLSASLGDRVTISCRASQDISNYLNWYQQKPDGTVKLLIYYTSRLHSGVPSRFSGSGSGTDYSLTISNLEQEDIATYFCQQGNTLPYTFGGGTRLEIRRADAAPTVSIFPPSSEQLTSGGASVVCFLNNFYPKDINVKWKIDGSERQNGVLNSWTDQDSKDSTYSMSSTLTLTKDEYERHNSYTCEATHKTSTSPIVKSFNRNEC
notes: Light chain only, with no heavy chain; tested as 293T culture supernatant
With B3, the binding result in test [3] is recorded as “no binding”.
